From the nanobody polyreactivity screen of Harvey et al. (2022)

Assay: yeast display, Sf9 membrane polyspecificity reagent, FACS + sequencing; frameworks hold sequencing errors
Procedure, shortened: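 Using colony PCR, genes from sorted yeast display clones were amplified, then sequenced on MiSeq at 2 × 250 and filtered by CDR length. The clones had been stained with 10% biotinylated, detergent-solubilized Sf9 membrane reagent for 1 hour at 4 °C and sorted by FACS into low and high (top ~1%) gates on anti-HA and streptavidin fluorescence. Polyreactivity labels come from the gate of origin.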

Sequence | polyreactivity (PSR sort gate)
QVQLVESGGGLDQAGGSLRLSCAASGFIFLDYAMGWYRRAPGKERELVAAISSRGARTYYADSVKGRFTISRDNAKNTFYLQMNSLKPEDTAVYYCAARGPLDRYGYWGQGTQVTVSS | high polyreactivity
QVQLVESGGGLVQAGGSLRLSCAASGSTLYCNAMGWYRQAPGKERELVAAISRSGGSTYYADSVKGRFTISRDNAKKTVYLQMNSLKPEDTAVYYCAARRYVPHTEYYYWGQGTQGTVSS | low polyreactivity
QVQLVESGGGLVQAGGSLRLSCAASGSTFVRYDMGWYRQAPGKERELVADISWSGVSTYADSVKGRFTISRDNAKNTVYLQMNSLIAEDTAVYYCAKDSDLYQRGGYYWGQGTQVTVSS | low polyreactivity
QVQLVESGGGLVQAGGSLRLSCAASGFIFYRYLMGWYRQAPGKERELVAAISRSGDRTYYADSVKGRFTISRDNAKNTVYLQMNSLKPEDTAVYDCAAALYYFSRGYWGQGTQVTVSS | high polyreactivity
QDQLVESGGGLVQAGGSLRLSCAASGRNFKYYGMRRYRQAPVKERDLVAAISRGSSTNYADSVKGRFTISRDNAKKTVYLQMYSLKPEDTAVYYCAVSLRRGGSGYAYDNWGQGTQVTVSA | high polyreactivity
QVQLVESRGGLVQAGGSLRLSCAASGIIFPRYAMGRYRQAPRKERELVAAITRRGGRTYYADSVKGRFTISRDNANNTVYLQMNSLKPEDTAVYYCNADFISTRPPKATDEDYWGQGTQVTVSS | high polyreactivity
QVLLVESGGGLVQAGGSLRLSCAASGIILGDNARGWYRQAPGKDRVLDATISTSGVSTYYADSVKGRFTISRDNAKKTVNFQMNSLKPQDTAVYYCAASNEVPWRFPDDSWGQGTQVTVSS | low polyreactivity
QVQLVESGGGLVQAGGSLRLSCAASGSTFGLYAMGWYRQAPGKEREFVAAISYSGSSTYYADSVKGRFTISRDNAKNTVYLQMNSLKPSDTAVYYCAARRSEHGYTYWGQGSQVTVSS | high polyreactivity
QVQLVESGGGLVQAGGSLRLSCAASGFTFYYYAMGWYRQAPGKERELVAAISDSGGITSYADSVKGRFTISRDNAKNTVYLQMNSLKPEDTAVYYCAAEWSQWPYDYWGQGTQVTVSS | low polyreactivity
QVQLVESGGGLVQAGGSLRLSCAASGRIITYNAMGWYRQAPGKERELVAAISTTGGRTYYADSVKGRFTISRDNAKNTVYLQMNSLKPEDTAVYYCNAVLKRPLAYHVTYDYWGQGTQVTVSA | high polyreactivity
QVQLGESGGVLVQEGGSLRLSSAASGSILSKYAIGWYRQAPGKERELVAVITSNSGRKYYADYLKGRFTISRDNAKNTVYLQMNSLKPEDTAVYYCAAQRRSSQNYYWGQGTQVTVSS | high polyreactivity
QVQLEESGGGLVQAGGSLRLSCAASVSNLYYYPMGWYRQATRKERELVASIRNGGSTYYADSVKGLFTISRDNAKNTVYLQMNSLKPEDTAVYYCNARVSRSFRARYNYWGQGSQVTVSS | high polyreactivity
QVQLLESGGGLVQAGGSLRLTCAASGSTFDYYAMGWYRQAPGKERELVATISYNDDTTYYADSVKGRFTISRDNAKNTVYLQMNSLKPEDTAVYYCNAEVYGGRYYVDMYYWGQGTQVTVSS | low polyreactivity
QVQLVESGGGLVQAGGSLRLSCAASGRTFSRYAMGWYRPAPGKERELVAAISSSGGSTYYADSVKGRFTISRDHAKNTVYLQMNSLKPEDTAVYYCAKYFIRDNRYDYWGQGTQVTVSS | high polyreactivity
QVQLVESGGGLVQAGGSLRLSCAASGFIFSSIAMGWYRPAPGKEREFVAAITSGGITYYADSLKGRFTISRDNAKNTVYLQMNSLKPEDTAVYYCAAVLSYQTPKYYRWRYGYWGQGTQVTVSS | low polyreactivity
QVQLVESGGGLVQAGGSLRLSCAASGGIFYYYTMGWYRQAPGKERELVAVISSSGSTYYADSVKGRFTISRDNAKNTVYLQMNSLKPEDTAVYYCNALGWYGDYDYWGQGTQVTVSS | low polyreactivity
QVQLVESGGGLVQAGGSLRLSCAASGSTFTGNAMGWYRQAPGKERELVASINGSSGSTYYADSVKGRFTISRDNAKNTVYLQMNSLKPEDTAVYYCAKDSFLHFPLVGWVGLEYWGQGTQVTVSS | low polyreactivity
